Data taken from patent US20240270857A1 (CHIA TAI TIANQING PHARMACEUTICAL GROUP, published 2024).
Where two headings read alike, the source gives them in different places.

T1: Human IL-1Rrp2/IL-1R6 protein, His Tag (ACROBiosystems, IL2-H52H6) (human, UniProt Q9HB29 20-335)
T1 construct: Bought protein; the soluble protein is likely only the extracellular part; also called hIL-36R; human IL36R antigen; not shown: His tag
T1 sequence: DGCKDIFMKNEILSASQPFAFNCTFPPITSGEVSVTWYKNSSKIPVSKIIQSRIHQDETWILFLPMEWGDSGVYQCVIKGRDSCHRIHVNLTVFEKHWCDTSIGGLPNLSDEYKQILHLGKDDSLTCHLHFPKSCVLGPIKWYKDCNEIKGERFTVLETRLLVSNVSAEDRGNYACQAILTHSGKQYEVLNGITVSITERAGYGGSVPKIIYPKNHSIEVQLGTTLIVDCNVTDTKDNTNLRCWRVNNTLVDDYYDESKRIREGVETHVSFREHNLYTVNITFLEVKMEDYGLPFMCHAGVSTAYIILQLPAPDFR

T2: cynomolgus IL-36R overexpressed on 293T-CynoIL36R-NFκB cells (cynomolgus monkey)
T2 chain: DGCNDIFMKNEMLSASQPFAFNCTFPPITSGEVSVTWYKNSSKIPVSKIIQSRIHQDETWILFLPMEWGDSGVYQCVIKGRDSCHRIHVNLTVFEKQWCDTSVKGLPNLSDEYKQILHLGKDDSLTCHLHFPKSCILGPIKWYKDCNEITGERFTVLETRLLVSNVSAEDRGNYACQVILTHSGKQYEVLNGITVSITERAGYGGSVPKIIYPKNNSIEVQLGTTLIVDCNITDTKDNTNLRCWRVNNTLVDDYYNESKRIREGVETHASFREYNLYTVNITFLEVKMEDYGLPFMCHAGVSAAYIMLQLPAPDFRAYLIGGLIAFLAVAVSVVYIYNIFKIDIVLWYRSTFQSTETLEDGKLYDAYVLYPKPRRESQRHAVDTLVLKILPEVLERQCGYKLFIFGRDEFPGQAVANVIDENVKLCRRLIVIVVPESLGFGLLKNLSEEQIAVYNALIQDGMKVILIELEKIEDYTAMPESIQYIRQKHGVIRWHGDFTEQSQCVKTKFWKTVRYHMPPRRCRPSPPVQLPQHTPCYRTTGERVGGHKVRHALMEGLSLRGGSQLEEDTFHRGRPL

T3: IL-36R naturally expressed on OVCAR8 cells and on normal human epidermal keratinocytes (NHK cells) (human, UniProt Q9HB29 20-575)
T3 sequence (looked up): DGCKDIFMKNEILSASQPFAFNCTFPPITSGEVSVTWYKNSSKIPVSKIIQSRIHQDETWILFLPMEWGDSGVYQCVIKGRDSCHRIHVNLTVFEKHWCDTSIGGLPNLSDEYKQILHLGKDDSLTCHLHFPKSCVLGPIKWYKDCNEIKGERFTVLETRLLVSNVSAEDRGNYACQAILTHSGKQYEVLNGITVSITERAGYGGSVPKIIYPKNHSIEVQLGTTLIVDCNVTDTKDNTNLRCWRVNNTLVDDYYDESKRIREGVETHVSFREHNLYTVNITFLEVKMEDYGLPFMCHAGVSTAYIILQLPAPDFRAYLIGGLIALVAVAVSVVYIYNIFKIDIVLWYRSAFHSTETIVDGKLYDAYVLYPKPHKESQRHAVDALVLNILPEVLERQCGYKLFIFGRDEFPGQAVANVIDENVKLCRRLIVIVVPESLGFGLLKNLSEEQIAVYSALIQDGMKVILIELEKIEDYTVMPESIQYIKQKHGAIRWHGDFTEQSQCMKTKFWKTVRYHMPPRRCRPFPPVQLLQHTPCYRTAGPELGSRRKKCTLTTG

T4: human IL-36R overexpressed on 293T-hIL36R-NFκB cells (human, UniProt Q9HB29 20-575)
T4 sequence: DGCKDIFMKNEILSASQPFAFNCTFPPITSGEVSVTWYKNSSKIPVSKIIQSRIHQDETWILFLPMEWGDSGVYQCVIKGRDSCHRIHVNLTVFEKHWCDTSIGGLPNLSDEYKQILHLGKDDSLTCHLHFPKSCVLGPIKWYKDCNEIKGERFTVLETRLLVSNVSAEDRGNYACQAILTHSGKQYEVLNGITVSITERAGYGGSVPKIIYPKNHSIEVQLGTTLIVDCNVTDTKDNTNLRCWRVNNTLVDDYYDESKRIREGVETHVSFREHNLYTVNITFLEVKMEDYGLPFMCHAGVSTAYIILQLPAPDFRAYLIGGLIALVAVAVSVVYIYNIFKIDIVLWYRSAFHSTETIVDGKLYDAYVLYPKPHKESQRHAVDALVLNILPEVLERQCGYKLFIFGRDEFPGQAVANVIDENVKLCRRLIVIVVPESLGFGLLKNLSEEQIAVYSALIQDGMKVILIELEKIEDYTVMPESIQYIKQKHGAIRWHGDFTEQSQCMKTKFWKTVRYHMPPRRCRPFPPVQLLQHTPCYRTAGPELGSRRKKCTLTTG


Experiments:
[1] = molecular target: T1, Human IL-1Rrp2/IL-1R6 protein, His Tag …; test: BLI (ForteBio Octet), antibody on ProA sensor, 1:1 model
Method: (§1) The affinity of anti-IL-36R antibodies to CynoIL36R-ECD mFc and human IL-1Rrp2/IL-IR6 protein, His Tag (ACROBiosystems, IL2-H52H6) was measured by a ForteBio molecular interaction instrument. […] And then the biosensor was used to bind CynoIL36R-ECD mFc or human IL-1Rrp2/IL-1R6 protein, His Tag which was diluted by a gradient (the initial concentration was 200 nM, 2-fold gradient dilution), the response signals were detected in real time using a Fortebio molecular interaction instrument (SARTORIUS, octet red 96e), and association and dissociation curves were obtained. After the completion of dissociation in each cycle, the biosensor was regenerated for the next capture; the procedure was repeated until the affinity of the different anti-IL-36R antibodies for IL-36R was determined. The resulting data were analyzed by Fortebio Data Analysis 11.0 software in a 1:1 (Langmuir) binding model to determine kₐ (kₒₙ) and kd (koff) values, and the dissociation constant KD was calculated by KD=kd/kₐ. The detection method essentially followed the manufacturer's recommendations, and more information could be found at www.fortebio.com.

[2] = molecular target: T2, cynomolgus IL-36R overexpressed on …; test: cell-based or functional assay
[3] = molecular target: T2, cynomolgus IL-36R overexpressed on …; test: cell-based or functional assay
[4] = molecular target: T3, IL-36R naturally expressed on OVCAR8 …; test: cell-based or functional assay
[5] = molecular target: T3, IL-36R naturally expressed on OVCAR8 …; test: cell-based or functional assay; remark: listed apart in the source
[6] = molecular target: T3, IL-36R naturally expressed on OVCAR8 …; test: cell-based or functional assay; remark: listed apart in the source
[7] = molecular target: T1, Human IL-1Rrp2/IL-1R6 protein, His Tag …; test: BLI (ForteBio Octet), antibody on ProA sensor, 1:1 model; remark: listed apart in the source
Method: as §1

[8] = molecular target: T4, human IL-36R overexpressed on …; test: cell-based or functional assay
[9] = molecular target: T4, human IL-36R overexpressed on …; test: cell-based or functional assay; remark: listed apart in the source

Kd [1] [nM]	koff [1] [s⁻¹]	kon [1] [M⁻¹ s⁻¹]	IC50; NFκB-luciferase reporter in 293T-CynoIL36R-NFκB cells stimulated with hIL36γ, inhibition rate % [2] [nM]	IC50; NFκB-luciferase reporter in 293T-CynoIL36R-NFκB cells stimulated with hIL36β, inhibition rate % [3] [nM]	IC50; IL-8 production of OVCAR8 cells stimulated with hIL36γ, inhibition rate % [4] [nM]	IC50; IL-8 production of NHK cells stimulated with hIL36α, inhibition rate % [5] [nM]	IC50; IL-8 production of OVCAR8 cells stimulated with hIL36α, inhibition rate % [6] [nM]	Kd [7] [nM]	koff [7] [s⁻¹]	kon [7] [M⁻¹ s⁻¹]	IC50; NFκB-luciferase reporter in 293T-hIL36R-NFκB cells stimulated with hIL36α, inhibition rate % [8] [nM]	IC50; NFκB-luciferase reporter in 293T-hIL36R-NFκB cells stimulated with hIL36β, inhibition rate % [9] [nM]	Binder
0.736	4.38e-05	59600	2.38	3.6	0.0555	0.159	0.113						chimeric 72C1 antibody (antibody, human IgG4 S228P, kappa, Mouse variable regions on human IgG4 / kappa; also called xi72C1) heavy: not shown light: EILLTQSPAIMSATLGEKVTMSCRASSNVRYMYWYQLKSGASPKLWIYLTSNLASGVPARFSGSGSGTSYSLTISSVEAEDAATYFCQQFTTSPYTFGGGTKLEIKRTVAAPSVFIFPPSDEQLKSGTASVVCLLNNFYPREAKVQWKVDNALQSGNSQESVTEQDSKDSTYSLSSTLTLSKADYEKHKVYACEVTHQGLSSPVTKSFNRGEC
								0.66	7e-05	106000	3.25	2.79	chimeric 84C4 antibody (antibody, human IgG4 S228P, kappa, Mouse variable regions on human IgG4 / kappa; also called xi84C4) heavy: not shown light: DILMTQSPSSLSASLGERVSLTCRASQDIGNALNWLQQAPDGTIKRLIYATSSLDPGVPKRFSGSRSGSDYSLTISSLASEDFVYYYCLQYASSPYTFGGGTKLEIKRTVAAPSVFIFPPSDEQLKSGTASVVCLLNNFYPREAKVQWKVDNALQSGNSQESVTEQDSKDSTYSLSSTLTLSKADYEKHKVYACEVTHQGLSSPVTKSFNRGEC
0.245	1.57e-05	64100	11.8	56.3	0.0405	0.0741	0.0799	0.22	1.29e-05	58600	6.09	2.45	BI655130 (antibody, human IgG1, kappa, L234A L235A, also called Spesolimab) heavy: not shown light: QIVLTQSPGTLSLSPGERATMTCTASSSVSSSYFHWYQQKPGQAPRLWIYRTSRLASGVPDRFSGSGSGTDFTLTISRLEPEDAATYYCHQFHRSPLTFGAGTKLEIKRTVAAPSVFIFPPSDEQLKSGTASVVCLLNNFYPREAKVQWKVDNALQSGNSQESVTEQDSKDSTYSLSSTLTLSKADYEKHKVYACEVTHQGLSSPVTKSFNRGEC
